B1: anti-CD22 heavy chain-only antibody Clone ID 335311 (antibody, V domains shown)
VH: QLQLQESGPGLVKPSETLSLTCAVYGGSFSGYYWGWIRQPPGKGLEWIGHIYYSGATYYNPSLKNRVTISVDTSRNQFSLNLSSVTAADTAVYYCTREDSSSWRSRGQGTLVTVSS
B2: anti-CD22 heavy chain-only antibody Clone ID 335220 (antibody, V domains shown)
VH: QLQLQESGPGLVKPSETLSLTCTVSGGSISSSSYYWGWIRQPPGKGLEWIGSIYYSGSTYYNPSLKNRVTISVDTSKNQFSLKLSSVTAADTAVYYCTREDSSNWRSRGQGTLVTVSS
B3: anti-CD22 heavy chain-only antibody Clone ID 335166 (antibody, V domains shown)
VH: QLQLQESGPGLVKPSETLSLTCTVSGGSISSSSYYWGWIRQPPGKGLEWIGSIYYSGSTYYNPSLKNRVTISVDTSRNQFSLNLSSVTAADTAVYYCTRDDSSNWRSRGQGTLVTVSS
B4: anti-CD22 heavy chain-only antibody Clone ID 335186 (antibody, V domains shown)
VH: QLQLQESGPGLVKPSETLSLTCTVSGGSISSSSYYWGWIRQPPGKGLEWIGSIYYSGSTYYNPSLKSRVTISVDTSKNQFSLKLSSVTAADTAVYYCTRDDSSNWRSRGQGTLVTVSS
B5: anti-CD22 heavy chain-only antibody Clone ID 335219 (antibody, V domains shown)
VH: QLQLQESGPGLVKPSETLSLTCTVSGGSISSSSYYWGWIRQPPGKGLEWIGSIYYSGVTYYNPSLKNRVTISVDTSKNQFSLKLSSVTAADTAVYYCTREDSSNWRSRGQGTLVTVSS
B6: anti-CD22 heavy chain-only antibody Clone ID 335179 (antibody, V domains shown)
VH: QLQLQESGPGLVKPSETLSLTCTVSGGSISSSSYYWGWFRHPPGKGLDWIGSIHYSGSTYYNPSLKSRVTISVDTSRNQFSLNLSSVTAADTAVYYCTRDDSSNWRSRGQGTLVTVSS
B7: anti-CD22 heavy chain-only antibody Clone ID 335173 (antibody, V domains shown)
VH: QLQLQESGPGLVKPSETLSLTCTVSGGSITSSSYYWGWIRQPPGKGLEWIGSIYYSGSTYYNPSLKSRVTISVDTSKNQFSLKLSSVTAADTAVYYCTRDDSSNWRSRGQGTLVTVSS
B8: anti-CD22 heavy chain-only antibody Clone ID 335188 (antibody, V domains shown)
VH: QLQLQESGPGLVKPSETLSLTCTVSGGSISSSSYYWGWIRQPPGKGLEWIGHIYYSGVTYYNPSLKNRVTISVDTSKNQFSLKLSSVTAADTAVYYCTRDDSSNWRSRGQGTLVTVSS
B9: anti-CD22 heavy chain-only antibody Clone ID 335236 (antibody, V domains shown)
VH: QLQLQESGPGLVKPSETLSLTCTVSGGSISSSSYYWGWIRQPPGKGLEWIGSIYYSGSTYYNPSLKSRVTISVDTSKNQFSLKLSSVTAADTAVYYCTREDSSNWRSRGQGTLVTVSS
B10: anti-CD22 heavy chain-only antibody Clone ID 335208 (antibody, V domains shown)
VH: QLQLQESGPGLVKPSETLSLTCTVSGGSISSSSYYWGWIRQPPGKGLEWIGSIYYSGATYYNPSLKNRVTISVDTSRNQFSLNLSSVTAADTAVYYCTREDSSNWRSRGQGTLVTVSS
B11: anti-CD22 heavy chain-only antibody Clone ID 335297 (antibody, V domains shown)
VH: QLQLQESGPGLVKPSETLSLTCTVSGGSISSSSYYWGWIRQPPGKGLEWIGHIYYSGATYYNPSLKNRVTISVDTSRNQFSLNLSSVTAADTAVYYCTREDSSSWRSRGQGTLVTVSS
B12: anti-CD22 heavy chain-only antibody Clone ID 335230 (antibody, V domains shown)
VH: QLQLQESDPGLVKPSETLSLTCTVSGGSISSSSHYWGWIRQPPGKGLEWIGHIYYSGATYYNPSLKNRVTISVDTSRNQFSLNLSSVTAADTAVYYCTREDSSNWRSRGQGTLVTVSS
B13: anti-CD22 heavy chain-only antibody Clone ID 335333 (antibody, V domains shown)
VH: QLQLQESGPGLVKPSETLSLTCTVSGGSISSSSYYWGWIRQPPGKGLEWIGSIYYSGSTYYNPSLKSRVTISVDTSKNQFSLKLSSVTAADTAVYYCAREDSSSWRSRGQGTLVTVSS
B14: anti-CD22 heavy chain-only antibody Clone ID 335242 (antibody, V domains shown)
VH: QLQLQESGPGLVKPSETLSLTCTVSGGSISSSSYYWGWIRQPPGKGLEWIGHIYYSGATYYNPSLKNRVTISVDTSRNQFSLNLSSVTAADTAVYYCTREDSSNWRSRGQGTLVTVSS
B15: anti-CD22 heavy chain-only antibody Clone ID 335283 (antibody, V domains shown)
VH: QLQLQESGPGLVKPSETLSLTCTVSGGSISSSSYYWGWIRQPPGKGLEWIGSIYYSGATYYNPSLKNRVTISVDTSKNQFSLKLSSVTAADTAVYYCTREDSSSWRSRGQGTLVTVSS
B16: anti-CD22 heavy chain-only antibody Clone ID 335189 (antibody, V domains shown)
VH: QLQLQESGPGLVKPSETLSLTCTVSGGSISSSSYYWGWIRQPPGKGLEWIGSVYYTGATYYNPSLKNRVTISVDTSKNQFSLKLSSVTAADTAVYYCTRDDSSNWRSRGQGTLVTVSS
B17: anti-CD22 heavy chain-only antibody Clone ID 335210 (antibody, V domains shown)
VH: QLQLQESGPGLVKPSETLSLTCTVSGGSISSGDYYWGWIRQPPGKGLEWIGHIYYSGATYYNPSLKNRVTISVDTSRNQFSLKLSSVTAADTAVYYCTREDSSNWRSRGQGTLVTVSS
B18: anti-CD22 heavy chain-only antibody Clone ID 335295 (antibody, V domains shown)
VH: QLQLQESGPGLVKPSETLSLTCTVSGGSISSSSYYWGWIRQPPGKGLEWIGSIYYSGATYYNPSLKNRVTISVDTSRNQFSLNLSSVTAADTAVYYCTREDSSSWRSRGQGTLVTVSS
B19: anti-CD22 heavy chain-only antibody Clone ID 335233 (antibody, V domains shown)
VH: QLQLQESGPGLVKPSETLSLTCTVSGDSISSGDYYWGWIRQPPGKGLEWIGSIYYSGSTYYNPSLKSRVTISVDTSKNQFSLKLSSVTAADTAVYYCTREDSSNWRSRGQGTLVTVSS
B20: anti-CD22 heavy chain-only antibody Clone ID 335224 (antibody, V domains shown)
VH: QLQLQESGPGLVKPSETLSLTCTVSGDSISSGDYYWGWIRQPPGKGLEWIGSIYYTGSTYYNPSLKSRVTISVDTSKNQFSLKLSSVTAADTAVYYCTREDSSNWRSRGQGTLVTVSS
B21: anti-CD22 heavy chain-only antibody Clone ID 335273 (antibody, V domains shown)
VH: QLQLQESGPGLVKPSETLSLTCTVSGGSISSSSYYWGWIRQPPGKGLEWIGSIYYSGSTYYNPSLKSRVTISVDTSKNQFSLKLSSVTAADTAVYYCTREDSSSWRSRGQGTLVTVSS
B22: anti-CD22 heavy chain-only antibody Clone ID 335195 (antibody, V domains shown)
VH: QLQLQESGPGLVKPSETLSLTCTVSGGSISSSSYYWGWIRQPPGKGLEWIGSIYYSGATYYNPSLKNRVTISVDTSRNQFSLNLSSVTAADTAMYYCTREDSSNWRSRGQGTLVTVSS
B23: anti-CD22 heavy chain-only antibody Clone ID 335266 (antibody, V domains shown)
VH: QLQLQESGPGLVRPSETLSLTCTVSGGSISSSSYYWGWIRQPPGKGLEWIGSIYYSGSTYYNPSLKSRVTISVDTSKNQFSLKLSSVTAADTAVYYCTREDSSSWRSRGQGTLVTVSS
B24: anti-CD22 heavy chain-only antibody Clone ID 335226 (antibody, V domains shown)
VH: QLQLQESGPGLVKPSETLSLTCTVSGDSISSSSYYWGWIRQPPGKGLEWIGSIYYSGSTYYNPSLKSRVTISVDTSKNQFSLKLSSVTAADTAVYYCTREDSSNWRSRGQGTLVTVSS

Sequence of human CD22 (P20273 20-687): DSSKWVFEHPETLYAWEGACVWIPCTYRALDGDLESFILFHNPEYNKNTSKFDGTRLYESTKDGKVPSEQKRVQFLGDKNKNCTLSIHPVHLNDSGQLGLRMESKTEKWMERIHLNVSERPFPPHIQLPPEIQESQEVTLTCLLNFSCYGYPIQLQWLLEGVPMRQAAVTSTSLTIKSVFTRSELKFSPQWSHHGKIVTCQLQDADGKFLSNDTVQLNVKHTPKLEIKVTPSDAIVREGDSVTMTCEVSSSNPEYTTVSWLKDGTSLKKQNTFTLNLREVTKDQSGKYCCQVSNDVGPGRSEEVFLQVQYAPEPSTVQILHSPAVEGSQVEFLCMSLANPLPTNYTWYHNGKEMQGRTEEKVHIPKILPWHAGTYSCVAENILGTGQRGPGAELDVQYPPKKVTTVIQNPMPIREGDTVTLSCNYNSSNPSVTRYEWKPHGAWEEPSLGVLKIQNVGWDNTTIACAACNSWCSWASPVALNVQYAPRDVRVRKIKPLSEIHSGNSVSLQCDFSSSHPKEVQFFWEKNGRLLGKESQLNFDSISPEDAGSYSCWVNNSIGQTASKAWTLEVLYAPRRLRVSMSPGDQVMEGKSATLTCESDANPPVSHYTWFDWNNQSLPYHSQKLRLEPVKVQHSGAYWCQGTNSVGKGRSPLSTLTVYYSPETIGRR

The experiment addresses human CD22 (human, UniProt P20273 20-687). In words: BLI. Put shortly:
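Affinity for human CD22 protein was measured by biolayer interferometry on an Octet QK-384 with anti-human IgG Fc capture biosensors, in 1×PBS, 0.1% BSA, 0.02% Tween-20, pH 7.2. Heavy chain-only antibodies were loaded at 5 μg/mL for 120 seconds, then dipped into a 7-point 1:2 dilution series of CD22 starting at 250 nM, with a buffer-only reference well. Kd was derived as koff/kon from a 1:1 binding model fit in Octet Data Analysis v9.0.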
As for B1, the equilibrium dissociation constant (Kd) worked out at 0.00266 µM.

For the molecule B2, the Kd came out at 0.0482 µM. With B3 the figure was 0.033 µM; with B4, 0.0176 µM; with B5, 0.0906 µM. With B6 the figure was 0.148 µM; with B7, 0.0305 µM.

B8 yielded a Kd of 0.053 µM. With B9 the figure was 0.0273 µM; with B10, 0.0584 µM.

The molecule B11 had a Kd of 0.0288 µM. In the case of B12, binding was put at a Kd of 0.0752 µM. With B13 the figure was 0.0224 µM; with B14, 0.0797 µM; with B15, 0.0369 µM. The value for B16 was 0.036 µM; that for B17 was 0.0625 µM; that for B18 was 0.0316 µM. The value for B19 was 0.019 µM; that for B20 was 0.0234 µM.

On to B21, for which binding was characterised by a dissociation constant (Kd) of 0.0422 µM. In the case of B22, the equilibrium dissociation constant (Kd) was determined as 0.15 µM.

Molecule B23 showed a Kd of 0.0385 µM.

B24 had a dissociation constant (Kd) of 0.0255 µM.

Broadly, the Kd is a measure of binding affinity in units of concentration. A higher Kd goes with weaker binding.

The values above are taken from patent US20210047402A1 (published 2021).
